The results in this text go back to publication PMC4230899, “Diverse allosteric and catalytic functions of tetrameric D-lactate dehydrogenases from three Gram-negative bacteria” (AMB Express, 2014).

Series [1] has as its target NAD-dependent D-lactate dehydrogenase from Pseudomonas aeruginosa (Pseudomonas aeruginosa JCM8532 (=PAO1)). The series is described as follows: SEC; Superdex 200 (Hiload 16/60), 1 ml of 1 mg/ml protein, 50 mM sodium acetate pH 5.0 with 150 mM NaCl; calibrated with standard proteins; apparent molecular weight against theoretical subunit weight.
Series [2] deals with T1, FNLDH (Fusobacterium nucleatum, UniProt Q8RG11).
T1 construct: gene FN0511
T1 sequence (Q8RG11 1-335): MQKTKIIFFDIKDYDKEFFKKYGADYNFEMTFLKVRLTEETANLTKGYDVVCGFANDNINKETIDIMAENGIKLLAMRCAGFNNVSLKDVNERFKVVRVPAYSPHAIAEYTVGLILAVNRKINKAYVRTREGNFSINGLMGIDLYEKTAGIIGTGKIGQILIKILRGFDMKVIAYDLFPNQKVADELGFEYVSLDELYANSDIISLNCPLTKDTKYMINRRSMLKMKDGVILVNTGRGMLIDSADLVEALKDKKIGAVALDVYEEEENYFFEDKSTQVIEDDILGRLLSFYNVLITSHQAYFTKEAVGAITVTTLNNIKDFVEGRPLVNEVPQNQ
Kind of series: NADH absorbance at […] nm, pyruvate reduction, nonlinear regression. Format: biochemical.

Series [3] concerns the target T2, ECLDH (Escherichia coli, UniProt P52643).
T2 construct: gene ldhA
T2 sequence (P52643 1-329): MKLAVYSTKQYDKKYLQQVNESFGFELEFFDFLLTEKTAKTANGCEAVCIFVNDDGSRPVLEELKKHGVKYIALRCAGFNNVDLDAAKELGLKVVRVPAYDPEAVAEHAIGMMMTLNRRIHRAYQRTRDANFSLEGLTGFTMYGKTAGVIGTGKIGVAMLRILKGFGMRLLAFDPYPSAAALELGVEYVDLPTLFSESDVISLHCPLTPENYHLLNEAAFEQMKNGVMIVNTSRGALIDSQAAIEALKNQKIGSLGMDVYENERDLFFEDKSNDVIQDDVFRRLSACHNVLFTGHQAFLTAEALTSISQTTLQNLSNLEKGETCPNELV
The series is described as above. Format: biochemical.

Series [4] deals with T3, PALDH (Pseudomonas aeruginosa, UniProt Q9I530).
T3 construct: gene ldhA
T3 sequence (Q9I530 1-329): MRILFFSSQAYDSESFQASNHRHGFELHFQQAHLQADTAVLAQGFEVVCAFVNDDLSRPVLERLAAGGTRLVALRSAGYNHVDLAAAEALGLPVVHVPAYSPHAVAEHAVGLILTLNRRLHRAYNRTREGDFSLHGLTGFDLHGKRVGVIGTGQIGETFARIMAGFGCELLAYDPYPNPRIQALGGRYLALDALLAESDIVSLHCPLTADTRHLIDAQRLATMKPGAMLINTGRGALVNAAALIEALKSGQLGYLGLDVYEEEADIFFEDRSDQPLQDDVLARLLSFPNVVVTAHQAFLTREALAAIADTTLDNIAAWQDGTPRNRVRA
The series is described as above. Format: biochemical.

Series [5] deals with T2, ECLDH. Kind of series: NADH absorbance at […] nm, activation of pyruvate reduction, Hill fit. Format: biochemical. Particulars: slight activator, half-saturation for activation; 7.5 mM pyruvate, 0.1 mM NADH; 50 mM Bicine-NaOH pH 8.0; 30 °C; read-out: S 0.5.
Substrate in series [6]: NC(=O)C1=CN([C@@H]2O[C@H](COP(=O)(O)OP(=O)(O)OC[C@H]3O[C@@H](n4cnc5c(N)ncnc54)[C@H](O)[C@@H]3O)[C@@H](O)[C@H]2O)C=CC1
The series is described as follows: purified protein. Format: biochemical, Pseudomonas aeruginosa. Particulars: saturating pyruvate, pH 7.0, 30 °C, no effector, apparent, varied: cofactor.

Substrate in series [7]: O=C(O)CC(=O)C(=O)O
Kind of series: purified protein. The note with it: 0.1 mM NADH, pH 7.0, 30 °C. Format: biochemical, Pseudomonas aeruginosa.

Substrate in series [8]: CCC(=O)C(=O)O
The series is described as follows: purified protein. Format: biochemical, Pseudomonas aeruginosa. The note with it: 0.1 mM NADH, pH 7.0, 30 °C.

Substrate in series [9]: O=C(O)C(=O)CO
Kind of series: purified protein. Format: biochemical, Pseudomonas aeruginosa. The note with it: 0.1 mM NADH, pH 7.0, 30 °C, fit with substrate inhibition.

Substrate in series [10]: CC(=O)C(=O)O
Kind of series: purified protein. The note with it: 0.1 mM NADH, pH 7.0, 30 °C, no effector, fit with substrate inhibition. Format: biochemical, Pseudomonas aeruginosa.

Substrate in series [11]: NC(=O)C1=CN([C@@H]2O[C@H](COP(=O)(O)OP(=O)(O)OC[C@H]3O[C@@H](n4cnc5c(N)ncnc54)[C@H](O)[C@@H]3O)[C@@H](O)[C@H]2O)C=CC1
The series is described as follows: purified protein. The note with it: saturating pyruvate, pH 7.0, 30 °C, no effector, apparent, varied: cofactor. Format: biochemical, Escherichia coli.

Substrate in series [12]: O=CC(=O)O
Kind of series: purified protein. Format: biochemical, Escherichia coli. Particulars: 0.1 mM NADH, pH 7.0, 30 °C, Hill fit.

Substrate in series [13]: O=C(O)C(=O)CO
The series is described as follows: purified protein. Format: biochemical, Escherichia coli. Particulars: 0.1 mM NADH, pH 7.0, 30 °C.

Substrate in series [14]: CC(=O)C(=O)O
Kind of series: purified protein. The note with it: 0.1 mM NADH, pH 7.0, 30 °C, no effector, Hill fit. Format: biochemical, Escherichia coli.

Series [15] deals with the molecule itself. The series is described as follows: SEC; Superdex 200 (Hiload 16/60), 1 ml of 1 mg/ml protein, 50 mM HEPES-NaOH pH 8.0 with 150 mM NaCl; calibrated with standard proteins; apparent molecular weight against theoretical subunit weight.
Substrate in series [16]: NC(=O)C1=CN([C@@H]2O[C@H](COP(=O)(O)OP(=O)(O)OC[C@H]3O[C@@H](n4cnc5c(N)ncnc54)[C@H](O)[C@@H]3O)[C@@H](O)[C@H]2O)C=CC1
The series is described as follows: purified protein. Format: biochemical, Fusobacterium nucleatum. Particulars: saturating pyruvate, pH 7.0, 30 °C, no effector, apparent, varied: cofactor.

Substrate in series [17]: O=C(O)CC(=O)C(=O)O
The series is described as follows: purified protein. Format: biochemical, Fusobacterium nucleatum. Particulars: 0.1 mM NADH, pH 7.0, 30 °C, fit with substrate inhibition.

Substrate in series [18]: CCC(=O)C(=O)O
Kind of series: purified protein. Format: biochemical, Fusobacterium nucleatum. Particulars: 0.1 mM NADH, pH 7.0, 30 °C.

Substrate in series [19]: CC(=O)C(=O)O
Kind of series: purified protein. Format: biochemical, Fusobacterium nucleatum. The note with it: 0.1 mM NADH, pH 7.0, 30 °C, no effector.

Substrate in series [20]: CCCC(=O)C(=O)O
Kind of series: purified protein. The note with it: 0.1 mM NADH, pH 7.0, 30 °C. Format: biochemical, Fusobacterium nucleatum.

Take “NAD-dependent D-lactate dehydrogenase from Pseudomonas aeruginosa (enzyme)”: the stoichiometry N in [1] came out at 3.

`NC(=O)C(=O)O` [Oxamate]: the Ki was found to be 9.4 ± 0.2 mM in series [2], 20 ± 2 mM in series [3] and 290 ± 40 µM in series [4].

Turning to `O=P(O)(O)OC[C@H]1OC(O)(COP(=O)(O)O)[C@@H](O)[C@@H]1O` (stereo partly shown) [FBP], the EC50 in series [5] amounted to 1.3 mM.

B1: PALDH (Pseudomonas aeruginosa PAO1) (protein)
chain: T3 sequence (Q9I530 1-329)
As for B1, the K0.5 is on record as 0.019 (0.0005) mM in series [6]; 1.7 (0.06) mM in series [7]; 0.64 (0.01) mM in series [8]; 3.0 (0.2) mM in series [9]; 0.10 (0.009) mM in [10]. In addition, the kcat is 310 s⁻¹ in [6]; 410 s⁻¹ in series [7]; 100 s⁻¹ in series [8]; 420 s⁻¹ in [9]; 400 s⁻¹ in series [10]. The specificity constant (kcat/Km) in series [6] turned out to be 1.7e+07 M⁻¹ s⁻¹; in series [7], 230000 M⁻¹ s⁻¹; in series [8], 150000 M⁻¹ s⁻¹; in series [9], 140000 M⁻¹ s⁻¹; in series [10], 4e+06 M⁻¹ s⁻¹.

B2: NAD-dependent D-lactate dehydrogenase from Escherichia coli (enzyme, E. coli BL21(DE3), UniProt P52643 1-329, looked up)
chain: T2 sequence (P52643 1-329)
notes: gene amplified from genomic DNA with primers from the start codon to the stop codon; theoretical molecular weight printed as 38.5 kDa; No removal of the vector's tag is described; the printed theoretical mass (38.5 kDa) may include the leader of pCold I (surmise); A second peak at the position of an octamer was seen and put down as a likely artefact of overexpression; also called ECLDH; …
As to B2, the K0.5 in series [11] is reported as 0.055 (0.004) mM; in series [12], 20 (2) mM; in series [13], 12 (0.3) mM; in series [14], 2.6 (0.09) mM. The kcat in [11] worked out at 640 s⁻¹; in series [12], 100 s⁻¹; in [13], 50 s⁻¹; in series [14], 410 s⁻¹. Besides, the kcat/Km in series [11] was determined as 1.2e+07 M⁻¹ s⁻¹; in series [12], 5300 M⁻¹ s⁻¹; in series [13] it was 4200 M⁻¹ s⁻¹; in [14] it was 160000 M⁻¹ s⁻¹. Also, the “stoichiometry N” value in series [15] was 4.

B3: NAD-dependent D-lactate dehydrogenase from Fusobacterium nucleatum subsp. nucleatum (enzyme, UniProt Q8RG11 1-335, looked up)
chain: T1 sequence (Q8RG11 1-335)
notes: FN0511 protein (FNLDH), NAD-dependent D-lactate dehydrogenase of Fusobacterium nucleatum subsp. nucleatum JCM14847 (=ATCC25586); gene amplified from genomic DNA with primers from the start codon to the stop codon; theoretical molecular weight printed as 40.0 kDa; No removal of the vector's tag is described; the printed theoretical mass (40.0 kDa) may include the leader of pCold I (surmise); The …
Take B3: the “stoichiometry N” value in [15] amounted to 4. For the same molecule, the K0.5 in series [16] is recorded as 0.022 (0.0005) mM; in series [17] it was 2.5 (0.09) mM; in series [18], 0.31 (0.006) mM; in series [19], 0.34 (0.007) mM; in series [20], 0.68 (0.01) mM. The kcat is 98 s⁻¹ in series [16]; 80 s⁻¹ in [17]; 140 s⁻¹ in series [18]; 80 s⁻¹ in series [19]; 140 s⁻¹ in [20]. In addition, the kcat/Km in [16] worked out at 4.4e+06 M⁻¹ s⁻¹; in [17], 31000 M⁻¹ s⁻¹; in series [18], 440000 M⁻¹ s⁻¹; in series [19] it was 230000 M⁻¹ s⁻¹; in [20], 200000 M⁻¹ s⁻¹.
